The target in this assay is F-actin (endogenous, detected with anti-beta-actin antibodies) (rat (endogenous in hippocampal neurons)) (UniProt P60711). The assay can be described thus: FRET or BRET; antibody-based acceptor-photobleaching FRET in fixed rat hippocampal neurons, single dendritic spine heads; anti-cofilin AE774 with Alexa 488 secondary (donor), anti-beta-actin AC15 with Alexa 555 secondary (acceptor); F-actin fixed, G-actin mostly extracted; control neurons, 2 min NMDA (nLTD), chronophin (CIN) overexpression. (In general: Bioluminescence resonance energy transfer reports proximity on the nanometre scale.)

Take “cofilin (endogenous cofilin/ADF of rat hippocampal neurons) (from UniProt P45592 1-166) (natural protein)”: the ratio of FRET in the presence versus the absence of nLTD, CIN-expressing neurons came to 51%.

The values above are taken from paper PMC3989342.
